Test results from patent publication US20250320303A1 (SHENGHE CHINA BIOPHARMACEUTICAL, published 2025).

T1: human W3785-hProl.ECD.His (Human-TNFR2-His) protein (human, UniProt P20333 23-257)
T1 construct: extracellular domain; not shown: His tag
T1 sequence (looked up): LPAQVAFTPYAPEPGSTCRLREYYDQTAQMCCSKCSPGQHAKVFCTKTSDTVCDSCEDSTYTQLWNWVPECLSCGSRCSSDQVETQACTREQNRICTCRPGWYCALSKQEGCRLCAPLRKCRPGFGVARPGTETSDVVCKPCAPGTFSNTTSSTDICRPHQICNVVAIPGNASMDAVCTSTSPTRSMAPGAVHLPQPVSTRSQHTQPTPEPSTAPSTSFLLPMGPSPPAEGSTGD

T2: human TNFR2 (tumor necrosis factor receptor 2), on cells (human, UniProt P20333 23-461)
T2 construct: whole, on cells; also called hTNFR2; CHOK1-hTNFR2
T2 sequence (looked up): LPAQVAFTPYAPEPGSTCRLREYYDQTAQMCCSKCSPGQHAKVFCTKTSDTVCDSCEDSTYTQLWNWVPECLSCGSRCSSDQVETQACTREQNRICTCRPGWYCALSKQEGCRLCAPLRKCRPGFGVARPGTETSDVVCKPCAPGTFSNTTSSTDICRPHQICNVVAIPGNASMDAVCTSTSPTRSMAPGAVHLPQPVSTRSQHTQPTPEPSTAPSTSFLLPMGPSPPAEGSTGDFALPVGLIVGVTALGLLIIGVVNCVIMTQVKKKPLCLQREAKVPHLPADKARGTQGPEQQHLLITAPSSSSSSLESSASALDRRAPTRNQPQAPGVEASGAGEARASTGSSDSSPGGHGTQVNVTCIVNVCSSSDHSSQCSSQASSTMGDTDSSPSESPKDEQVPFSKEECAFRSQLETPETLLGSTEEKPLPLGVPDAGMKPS

T3: Recombinant human TNFR2-His Tag protein (Sino, Cat: 10417-H08H) (human, UniProt P20333 23-257)
T3 construct: Bought protein; also called hTNFR2; not shown: His tag
T3 sequence (looked up): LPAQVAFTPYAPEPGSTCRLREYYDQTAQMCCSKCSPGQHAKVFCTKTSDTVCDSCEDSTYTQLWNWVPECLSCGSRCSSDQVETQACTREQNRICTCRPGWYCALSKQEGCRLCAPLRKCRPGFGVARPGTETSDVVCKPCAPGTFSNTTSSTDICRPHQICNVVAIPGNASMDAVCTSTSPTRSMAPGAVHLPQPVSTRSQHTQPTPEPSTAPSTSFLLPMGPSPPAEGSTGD


Key:
[1] = target: T1, human W3785-hProl.ECD.His …; assay: BLI (Octet Red96e), antibody on AHC sensor, Human-TNFR2-His in solution, single concentration
Protocol: After equilibration of the AHC sensor with 0.02% PBST (0.02% Tween 20, pH 7.4, 1*PBS) as buffer for 60 s, the TNFR2 antibody in the sample plate was immobilized for 300 s, and second equilibration was performed for 180 s. 100 nM of human W3785-hProl.ECD.His (Human-TNFR2-His) protein was bound with the TNFR2 antibody for 300 s and then dissociated for 600 s. After dissociation, 10 mM glycine (pH 2.0) was used as regeneration buffer to regenerate for 30 s.

[2] = target: T1, human W3785-hProl.ECD.His …; assay: BLI (Octet Red96e), antibody on AHC sensor, Human-TNFR2-His in solution, multiple concentrations
[3] = target: T1, human W3785-hProl.ECD.His …; assay: indirect ELISA on coated Human-TNFR2-His
Protocol: (1) Coating: Human-TNFR2-His was diluted to 0.5 μg/mL with coating solution (1×PBS, pH 7.4), and coated into a 96-well ELISA plate at 100 μL/well at 4° C. overnight. The coating solution was poured off, and the plate was washed with 1×PBST at 300 μL per well, washed with a plate cleaning instrument for 4 times, and patted dry on sheet paper. [0184] (2) Blocking: it was blocked with 3% non-fat dry milk at 300 μL/well, and incubated at 37° C. for 1 h. The blocking solution was poured off, washed by a plate cleaning instrument for 4 times, and patted dry on sheet paper. [0185] (3) Sample dilution: the reference product and the test product were diluted with 3% non-fat dry milk to 10 μg/mL, and this was used as the initial concentration for 3-fold dilution with a total of 11 gradients of dilution, and another one blank well was set up, and only diluent was added. It was incubated at 100 μL/well at 37° C. for 1 h. Liquid in the wells was discarded, washed by a plate cleaning instrument for 4 times, and patted dry on the sheet paper. [0186] (4) Addition of enzyme-labeled secondary antibody: Peroxidase-conjugated AffiniPure F(ab′)2 Fragment Goat Anti-Human IgG was diluted with 3% non-fat dry milk at 1:20,000. It was incubated at 100 μL/well at 37° C. for 1 h. It was washed by a plate cleaning instrument for 6 times and patted dry on sheet paper. […] (5) Color development: TMB color development solution was added at 100 μL/well and wrapped with aluminium foil, and the color was developed at 37° C. without light for 8 min. [0188] (6) Termination of color development: terminal solution 1 M HCl was added to terminate the color development reaction at 100 μL/well. [0189] (7) Reading at 450 nm on the enzyme labeler. [0190]

[4] = target: T2, human TNFR2 (tumor necrosis factor …); assay: flow cytometry on CHOK1-hTNFR2 cells
Protocol: CHOK1-hTNFR2 cells were plated at 1×10⁵/well (containing 1% BSA). 100 μL of isotype control and candidate antibodies were added at a concentration of 100 nm and 4-fold diluted in 11 gradients (containing 1% BSA). Cells were incubated at 4° C. for 1 hour and then washed twice with excess FACS buffer. Cells were resuspended in 100 μL of FACS buffer, and 100 μL of goat anti-rat IgG Fc-AF647 (1:500) containing 1% BSA was added, incubated at 4° C. without light for 30 minutes and washed twice with excess FACS buffer. Cells were fixed in fixation buffer and subsequently analyzed by flow cytometry. The FACS method screened for candidate antibodies with high specific binding activity to human TNFR2.

[5] = target: T3, Recombinant human TNFR2-His Tag protein …; assay: competition ELISA: captured TNFR2-His, antibody titrated against 1.6 nM biotin-TNF-alpha (competitor)
Protocol: Anti-His antibody (1 μg/mL) was coated at 50 μL/well, incubated at 4° C. overnight and washed 3 times with PBST. 2% BSA was added at 200 μL/well, incubated at room temperature for 1 hour and washed 3 times with PBST. 0.25 μg/mL (containing 2% BSA) of recombinant human TNFR2-His Tag protein (Sino; Cat: 10417-H08H) was added at 50 μL/well, incubated for 1 hour at room temperature and washed 3 times with PBST. Primary antibody (isotype control or candidate antibody) was added at a concentration of 100 nM and diluted 4-fold in 11 gradients with a solution containing 1.6 nM recombinant human TNF-alpha-Biotin protein (Sino; Cat: 10602-HANE-B) and 2% BSA, incubated for 2 hours at room temperature and washed 3 times with PBST. Secondary antibody SA-HRP (1:5000) containing 2% BSA was added at 50 μL/well, incubated for 1 hour at room temperature and washed 3 times with PBST.
After washing, TMB developed the color for 10 min, and the OD450 reading was determined by the enzyme labeler after the display was terminated. Based on the experimental results, it was judged whether the candidate antibodies had ligand blocking activity. As shown in Table 2 and FIG. 2, 2 sequences show better ligand blocking ability than BMK2; 6 sequences show equivalent ligand blocking ability to BMK2.

[6] = target: T3, Recombinant human TNFR2-His Tag protein …; assay: SPR (Biacore 8K), antibody captured by anti-rat Fc, 10 nM TNFR2-His as analyte, 1:1 model
Protocol: The CM5 sensor chip was activated at a flow rate of […] for 420 s. The channel was then injected with 30 μg/mL of anti-rat Fc IgG in 10 mM NaAc (pH 4.5) at a flow rate of 10 μL/min. The chip was inactivated with 1 M ethanolamine-hydrochloric acid (GE) for 420 s at a flow rate of 10 μL/min.
Candidate antibodies in running buffer 1×HBS-EP+(10 mM HEPES, 150 mM NaCl, 3 mM EDTA, 0.05% Tween 20, pH 7.4) were captured onto Fc2 with anti-rat Fc IgG at a flow rate of 10 μL/min. The 10 nM recombinant human TNFR2-His Tag protein (Sino; Cat: 10417-H08H) and running buffer were sequentially injected into Fc1-Fc2 at a flow rate of […], bound for 180 s, and then dissociated for 3600 s. 10 mM glycine (pH 1.5) was injected as regeneration buffer after each dissociation.
Result plots for the reference channel Fc1 and the buffer channel were subtracted from the test result plots. The experimental data fit the 1:1 binding model. The molecular weight of 26.6 kDa was used to calculate the molar concentration of recombinant human TNFR2-His Tag protein.

[7] = target: T2, human TNFR2 (tumor necrosis factor …); assay: cell-based or functional assay

Binder | Kd [1] [nM] | Kd [2] [nM] | koff [2] [s⁻¹] | kon [2] [M⁻¹ s⁻¹] | EC50 [3] [mg/L] | EC50 [4] [nM] | Maximum average fluorescence value [4] | IC50 [5] [nM] | Inhibition rate (%) [5] [%] | Kd [6] [nM] | koff [6] [s⁻¹] | kon [6] [M⁻¹ s⁻¹] | IC50(nM), Treg cell count after 72 h with IL2 and TNF-alpha [7] [nM] | Treg cell changes relative to IL-2(%) [7] [%]
Antibody 10-xIgG1K (antibody, V domains shown, Rat-human chimeric antibody, human IgG1 kappa) VH: EVQLVETGGGLVQPGKSLKLTCATSGFTFSNAWMGWVRQSPEKQLEWVAQIKDKSNNYPTYYAESVKGRFTISRDDSESSVYLQMNSLKEEDTAIYYCTGYGDFFDYWGQGVVVTVSS VL: DIQMTQSPASLSASLGETVTIECRASEDIYNGLAWYQQKPGNSPRLLIFNANSLHTGVPSRFSGSGSGTQYSLKINSLQSEDVASYFCQQYYDHPLTFGSGIKLEIKR | 0.24 | 0.0996 | 8.1e-05 | 813000 | 0.0143 | – | – | – | – | – | – | – | – | –
Antibody 10 (antibody, V domains shown, Rat monoclonal antibody from a hybridoma) VH: EVQLVETGGGLVQPGKSLKLTCATSGFTFSNAWMGWVRQSPEKQLEWVAQIKDKSNNYPTYYAESVKGRFTISRDDSESSVYLQMNSLKEEDTAIYYCTGYGDFFDYWGQGVVVTVSS VL: DIQMTQSPASLSASLGETVTIECRASEDIYNGLAWYQQKPGNSPRLLIFNANSLHTGVPSRFSGSGSGTQYSLKINSLQSEDVASYFCQQYYDHPLTFGSGIKLEIK | – | – | – | – | – | 0.077 | 907 | > 100 | 12.2 | 0.15 | 7.4e-05 | 492000 | – | –
Antibody 11-xIgG1K (antibody, V domains shown, Rat-human chimeric antibody, human IgG1 kappa) VH: EVQLQQSGPELRRPGSSVKLSCKASGYSITDYLLHWVKHSPEHGLEWIGWIDPEDGKTKYGQKFQSKATLTADTSSNAAYMQLSSLTSEDSATYFCAANSGTGTMDAWGQGASVTVSS VL: DIVMTQSPTSMSISVGDRVTLNCKASQNVGSNVDWYQQKTGQSPKVLLYKASIRYTGVPDRFTGSGSGTEFTFTITNMQAEDLAVYFCMQSKSYPITFGSGTKLEIKR | 0.396 | 0.317 | 0.000171 | 542000 | – | – | – | – | – | – | – | – | – | –
Antibody 11 (antibody, V domains shown, Rat monoclonal antibody from a hybridoma) VH: EVQLQQSGPELRRPGSSVKLSCKASGYSITDYLLHWVKHSPEHGLEWIGWIDPEDGKTKYGQKFQSKATLTADTSSNAAYMQLSSLTSEDSATYFCAANSGTGTMDAWGQGASVTVSS VL: DIVMTQSPTSMSISVGDRVTLNCKASQNVGSNVDWYQQKTGQSPKVLLYKASIRYTGVPDRFTGSGSGTEFTFTITNMQAEDLAVYFCMQSKSYPITFGSGTKLEIK | – | – | – | – | – | 0.493 | 1010 | > 100 | 22.4 | 1.4 | 0.000169 | 120000 | – | –
Antibody 04 (antibody, V domains shown, Rat monoclonal antibody from a hybridoma) VH: EVHLQQSGPEVGRPGSSVKISCKASGYTFTDYIIHWVKQSPGQGLEWMGWIDPDYGNTDYADKFKKKATLTADASSNTAFIHLSRLTSEDTATYFCARDDGSPLVMDAWGQGTSVTVSS VL: NIQLTQSPSLLSASVGDRVTLSCNGSQNIDNYLAWFQQKLGEAPKLLIYSTYSLQTGIPSRFSGSRSGTDYTLTISSLQPEDVATYFCFQYNNGYMFGAGTKLELK | – | – | – | – | – | 0.025 | 1320 | 0.584 | 96 | < 0.00758 | < 1e-05 | 1.32e+06 | 0.88 | 100
Antibody 04-xIgG1K (antibody, V domains shown, Rat-human chimeric antibody, human IgG1 kappa) VH: EVHLQQSGPEVGRPGSSVKISCKASGYTFTDYIIHWVKQSPGQGLEWMGWIDPDYGNTDYADKFKKKATLTADASSNTAFIHLSRLTSEDTATYFCARDDGSPLVMDAWGQGTSVTVSS VL: NIQLTQSPSLLSASVGDRVTLSCNGSQNIDNYLAWFQQKLGEAPKLLIYSTYSLQTGIPSRFSGSRSGTDYTLTISSLQPEDVATYFCFQYNNGYMFGAGTKLELKR | 0.148 | 0.0606 | 6.65e-05 | 1.1e+06 | 0.00581 | – | – | – | – | – | – | – | – | –
